US20110275569A1 (CONSIGLIO NAZIONALE DELLE RICERCHE, published 2011)
Where no end group is shown, it is not given here.

T1: porcine acylamino-acid-releasing enzyme (AARE or APEH) (porcine, UniProt P19205 1-732, limits assumed)
T1 sequence (looked up): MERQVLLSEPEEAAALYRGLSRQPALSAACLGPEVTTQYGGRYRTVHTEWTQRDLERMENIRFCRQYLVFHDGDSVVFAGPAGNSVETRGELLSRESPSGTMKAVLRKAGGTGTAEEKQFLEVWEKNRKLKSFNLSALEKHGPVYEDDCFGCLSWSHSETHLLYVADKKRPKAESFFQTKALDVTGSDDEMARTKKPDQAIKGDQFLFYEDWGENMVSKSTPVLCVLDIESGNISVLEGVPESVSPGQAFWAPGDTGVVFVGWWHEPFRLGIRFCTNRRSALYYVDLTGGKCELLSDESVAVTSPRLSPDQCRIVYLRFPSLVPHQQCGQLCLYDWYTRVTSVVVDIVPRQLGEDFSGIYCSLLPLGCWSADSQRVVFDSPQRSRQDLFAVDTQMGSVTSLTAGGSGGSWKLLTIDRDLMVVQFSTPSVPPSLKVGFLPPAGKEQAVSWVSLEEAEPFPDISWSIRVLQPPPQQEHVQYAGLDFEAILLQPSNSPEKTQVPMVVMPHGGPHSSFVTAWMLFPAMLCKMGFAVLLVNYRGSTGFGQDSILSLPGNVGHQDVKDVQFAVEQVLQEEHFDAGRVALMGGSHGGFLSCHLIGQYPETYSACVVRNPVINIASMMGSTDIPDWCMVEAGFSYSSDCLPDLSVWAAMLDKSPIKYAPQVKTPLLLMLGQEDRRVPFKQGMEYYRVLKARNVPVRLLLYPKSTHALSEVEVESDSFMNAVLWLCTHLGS

T2: human acylamino-acid-releasing enzyme (AARE or APEH) (human, UniProt P13798 1-732, limits assumed)
T2 sequence (looked up): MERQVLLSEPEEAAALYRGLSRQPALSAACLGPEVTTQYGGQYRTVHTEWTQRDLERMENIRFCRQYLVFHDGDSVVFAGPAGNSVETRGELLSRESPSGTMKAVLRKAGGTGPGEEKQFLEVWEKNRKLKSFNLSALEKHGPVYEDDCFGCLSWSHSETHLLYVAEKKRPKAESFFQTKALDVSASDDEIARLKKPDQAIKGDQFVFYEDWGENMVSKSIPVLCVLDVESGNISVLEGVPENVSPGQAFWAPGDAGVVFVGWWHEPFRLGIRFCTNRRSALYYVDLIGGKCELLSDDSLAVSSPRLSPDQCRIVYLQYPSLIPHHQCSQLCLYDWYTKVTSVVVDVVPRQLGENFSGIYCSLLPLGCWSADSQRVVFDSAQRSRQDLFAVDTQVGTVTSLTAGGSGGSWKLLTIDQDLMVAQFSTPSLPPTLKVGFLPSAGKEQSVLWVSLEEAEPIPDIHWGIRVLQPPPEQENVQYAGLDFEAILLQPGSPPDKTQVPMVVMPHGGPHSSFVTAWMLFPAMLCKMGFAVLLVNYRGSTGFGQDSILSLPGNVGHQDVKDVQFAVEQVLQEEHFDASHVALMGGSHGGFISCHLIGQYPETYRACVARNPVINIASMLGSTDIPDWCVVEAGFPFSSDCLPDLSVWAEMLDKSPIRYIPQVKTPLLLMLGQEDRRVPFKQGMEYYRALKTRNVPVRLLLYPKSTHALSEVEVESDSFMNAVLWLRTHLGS

B1: recombinant S. solfataricus inhibitor Sso0767 (SsCEI) (other)
chain: MNSESIYSMRVVSSAFKNEDFIPIKYTCDGQDLSPELEWDLVTNAKSYAIIVEDPDAPGGTFIHWVIYNITTNRLPEGVPRLYKSQYGVQGVNDFGNIGYNGPCPPKTHPPHRYYFYVYAIDTILLEIKNINADKLKSLMEGHGIERGFVMGKYKRK
notes: The filling uses Sso0767, Sso1273 and SsCEI for the same protein; also called Sso1273; not shown: C-terminal His tag from expression vector pET-28

Key:
[1] = target: T1, porcine acylamino-acid-releasing enzyme …; assay: cell-based or functional assay
[2] = target: T2, human acylamino-acid-releasing enzyme …; assay: cell-based or functional assay
[3] = target: T1, porcine acylamino-acid-releasing enzyme …; assay: enzyme inhibition kinetics, Lineweaver-Burk plot, competitive inhibition
porcine elastase [4] = target: T3, porcine elastase (porcine, UniProt P00772 27-266); assay: enzyme inhibition kinetics, double reciprocal plot
[5] = target: T4, bovine alpha-chymotrypsin (bovine, UniProt P00766 1-13; P00766 16-146; P00766 149-245); assay: enzyme inhibition kinetics, double reciprocal (Lineweaver-Burk) plot, competitive inhibition
Description: The reciprocals of the rate of the substrate hydrolysis for each inhibitor concentration were plotted against the reciprocals of the substrate concentrations. Ki was determined from the formula as per the competitive type of inhibition.

[6] = target: T4, bovine alpha-chymotrypsin; assay: cell-based or functional assay
porcine elastase [7] = target: T3, porcine elastase; assay: cell-based or functional assay
[8] = target: T2, human acylamino-acid-releasing enzyme …; assay: cell-based or functional assay; remark: listed apart in the source
[9] = target: T4, bovine alpha-chymotrypsin; assay: cell-based or functional assay; remark: listed apart in the source
porcine elastase [10] = target: T3, porcine elastase; assay: cell-based or functional assay; remark: listed apart in the source
[11] = target: T1, porcine acylamino-acid-releasing enzyme …; assay: cell-based or functional assay; remark: listed apart in the source
[12] = target: T1, porcine acylamino-acid-releasing enzyme …; assay: enzyme inhibition kinetics with N-acetyl-Ala-pNA as substrate

T3 sequence (P00772 27-266 limits assumed): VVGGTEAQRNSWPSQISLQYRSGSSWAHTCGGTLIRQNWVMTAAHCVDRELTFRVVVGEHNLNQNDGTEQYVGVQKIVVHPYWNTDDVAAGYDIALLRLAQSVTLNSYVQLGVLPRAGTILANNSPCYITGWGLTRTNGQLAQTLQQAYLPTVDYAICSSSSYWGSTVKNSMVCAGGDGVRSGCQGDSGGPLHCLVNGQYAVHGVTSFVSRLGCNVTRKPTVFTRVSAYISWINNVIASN

| Binder | IC50 [1] | IC50 [2] | Ki [3] | Ki (porcine elastase [4]) | Ki [5] | IC50 value (50% inhibitory concentration) [6] | IC50 value (porcine elastase [7]) | IC50 value at 37° C. [8] | IC50 [9] | IC50 (porcine elastase [10]) | IC50 values [11] | Ki [12] |
| --- | --- | --- | --- | --- | --- | --- | --- | --- | --- | --- | --- | --- |
| TILAEIKNINAD-NH2 (also called Peptide 4) [Compound 4 or SsCEI 4] | 35 µM | 35 µM | 4 µM | – | – | – | – | – | – | – | – | – |
| B1 | – | – | – | 0.1 µM | 0.08 µM | 0.1 µM | 0.15 µM | 0.02 µM | 0.025 µM | 0.04 µM | – | – |
| YAIDTILAEIKNINAD-NH2 (also called Peptide 3) [Compound 3 or SsCEI 3] | 25 µM | 25 µM | – | – | – | – | – | – | – | – | 20 µM | 20 µM |
